Results from patent publication US20190055304A1 (published 2019).

Columns and labels:
[1] = target: peptide 12, SGSG … (Staphylococcus aureus); assay: ELISA, biotinylated peptides on streptavidin coated plates
[2] = target: peptide 13, SGSG … (Staphylococcus aureus); assay: as above
[3] = target: peptide 18, SGSG … (Staphylococcus aureus); assay: as above
[4] = target: peptide 26, […] (Staphylococcus aureus); assay: as above
[5] = target: peptide 14, SGSG … (Staphylococcus aureus); assay: as above
[6] = target: peptide 19, SGSG … (Staphylococcus aureus); assay: as above
[7] = target: peptide 20, SGSG … (Staphylococcus aureus); assay: as above
[8] = target: peptide 6, SGSG … (Staphylococcus aureus); assay: as above
[9] = target: T1, DNABII protein from Klebsiella pneumoniae (IHF; IHF-alpha by the legend of FIGS. 7A-7C) (Klebsiella pneumoniae, UniProt A6TAI1 1-99); assay: ELISA at pH 6.5; printed as 'Affinity (nM)'
T1 construct: also called Kp; K. pneumoniae
T1 sequence: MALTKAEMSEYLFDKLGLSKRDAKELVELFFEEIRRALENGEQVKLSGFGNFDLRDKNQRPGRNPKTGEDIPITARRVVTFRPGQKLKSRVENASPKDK

[10] = target: T2, DNABII protein from Pseudomonas aeruginosa (IHF-alpha by the legend of FIGS. 7A-7C) (Pseudomonas aeruginosa, UniProt Q51472 2-100); assay: ELISA at pH 6.5; printed as 'Affinity (nM)'
T2 construct: mature; also called Pa; P. aeruginosa; not shown: poly-histidine tag
T2 sequence: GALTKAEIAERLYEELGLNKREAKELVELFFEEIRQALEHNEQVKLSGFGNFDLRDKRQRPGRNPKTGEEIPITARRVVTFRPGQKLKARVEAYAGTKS

[11] = target: T3, full length DNABII protein, HU-beta, from Staphylococcus aureus (Staphylococcus aureus, UniProt Q5HFV0 1-90); assay: ELISA at pH 6.5; printed as 'Affinity (nM)'
T3 construct: mature; also called HU Sa; HU-beta of S. aureus; not shown: poly-histidine tag
T3 sequence: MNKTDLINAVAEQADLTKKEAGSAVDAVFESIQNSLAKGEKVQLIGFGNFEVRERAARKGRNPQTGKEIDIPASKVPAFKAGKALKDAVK

[12] = target: T4, DNABII protein from Acinetobacter baumannii (Acinetobacter baumannii); assay: adsorption ELISA, antigen coated; printed as 'Affinity (pM)', half-maximal binding concentration
T4 construct: mature
T4 sequence (B7I698 whole entry): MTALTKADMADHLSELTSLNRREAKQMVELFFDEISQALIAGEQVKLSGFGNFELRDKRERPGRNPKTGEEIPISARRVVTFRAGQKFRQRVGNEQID

[13] = target: T5, DNABII protein from Haemophilus influenzae (IHF) (Haemophilus influenzae); assay: as above
T5 construct: mature; also called H. influenzae; IHF from Haemophilus influenzae
T5 sequence (P43723 whole entry): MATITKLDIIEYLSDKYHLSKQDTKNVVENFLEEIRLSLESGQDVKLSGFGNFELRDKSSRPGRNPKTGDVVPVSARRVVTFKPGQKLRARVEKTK

[14] = target: T1, DNABII protein from Klebsiella …; assay: ELISA at pH 3.5; printed as 'Affinity (nM)'
[15] = target: T2, DNABII protein from Pseudomonas …; assay: ELISA at pH 3.5; printed as 'Affinity (nM)'
[16] = target: T3, full length DNABII protein, HU-beta, …; assay: ELISA at pH 3.5; printed as 'Affinity (nM)'
[17] = target: T1, DNABII protein from Klebsiella …; assay: ELISA at pH 5.5; printed as 'Affinity (nM)'
[18] = target: T2, DNABII protein from Pseudomonas …; assay: ELISA at pH 5.5; printed as 'Affinity (nM)'
[19] = target: T3, full length DNABII protein, HU-beta, …; assay: ELISA at pH 5.5; printed as 'Affinity (nM)'
[20] = target: T1, DNABII protein from Klebsiella …; assay: ELISA at pH 7.5; printed as 'Affinity (nM)'
[21] = target: T2, DNABII protein from Pseudomonas …; assay: ELISA at pH 7.5; printed as 'Affinity (nM)'
[22] = target: T3, full length DNABII protein, HU-beta, …; assay: ELISA at pH 7.5; printed as 'Affinity (nM)'
[23] = target: T1, DNABII protein from Klebsiella …; assay: ELISA at pH 4.5; printed as 'Affinity (nM)'
[24] = target: T2, DNABII protein from Pseudomonas …; assay: ELISA at pH 4.5; printed as 'Affinity (nM)'
[25] = target: T3, full length DNABII protein, HU-beta, …; assay: ELISA at pH 4.5; printed as 'Affinity (nM)'
[26] = target: T1, DNABII protein from Klebsiella …; assay: ELISA at pH 2.5; printed as 'Affinity (nM)'
[27] = target: T2, DNABII protein from Pseudomonas …; assay: ELISA at pH 2.5; printed as 'Affinity (nM)'
[28] = target: T3, full length DNABII protein, HU-beta, …; assay: ELISA at pH 2.5; printed as 'Affinity (nM)'
[29] = target: T3, full length DNABII protein, HU-beta, …; assay: adsorption ELISA, antigen coated; given as 'affinity', estimated as half-maximal binding concentration

B1: TRL1335 (antibody, V domains shown)
VH: QVQLVESGAEVKKPGESLKISCKGSGYNFTSYWIGWVRQMPGKGLEWMGVIYPDDSDTRYSPSFKGQVTISADKSISTAFLQWSSLKASDTAVYHCARPPDSWGQGTLVTVSS
VL: DIVMTQSPATLSVSPGERATLSCRASQSVSSNLAWYQQKPGLAPRLLIVGASNRATGIPARFSGSGSGTEFTLTISSLQSEDFAFYYCQQYNNWPFTFGPGTKVDVKR
B1: no binding [1]; no binding [2]; no binding [3]. B1: no binding [4]; no binding [5]; no binding [6]. B1: no binding [7]; no binding [8].

B2: TRL1068 (antibody, V domains shown)
VH: QVQLVESGPGLVKPSETLSLTCRVSGDSNRPSYWSWIRQAPGKAMEWIGYVYDSGVTIYNPSLKGRVTISLDTSKTRFSLKLTSVIAADTAVYYCARERFDRTSYKSWWGQGTQVTVSS
VL: DIVLTQAPGTLSLSPGDRATLSCRASQRLGGTSLAWYQHRSGQAPRLILYGTSNRATDTPDRFSGSGSGTDFVLTISSLEPEDFAVYYCQQYGSPPYTFGQGTTLDIK
B2 gave an EC50 [9] of 6 pM, an EC50 [10] of 5 pM and an EC50 [11] of 12 pM. For the same binder, the EC50 [12] was 10 pM, the EC50 [13] was 5000 pM and the EC50 [14] was 3000 pM. For the same binder, the EC50 [15] was 260 pM, the EC50 [16] was 360 pM and the EC50 [17] was 9 pM. The EC50 [18] was 6 pM, the EC50 [19] was 12 pM and the EC50 [20] was 6 pM. The EC50 [21] was 5 pM, the EC50 [22] was 10 pM and the EC50 [23] was 50 pM. The EC50 [24] was 9 pM, the EC50 [25] was 12 pM and the EC50 [26] was 2600 pM. The EC50 [27] was 2100 pM and the EC50 [28] was 3500 pM.

B3: TRL1330 (antibody, V domains shown)
VH: QVQLVESGTEVKNPGASVKVSCTASGYKFDEYGVSWVRQSPGQGLEWMGWISVYNGKTNYSQNFQGRLTLTTETSTDTAYMELTSLRPDDTAVYYCATDKNWFDPWGPGTLVTVSS
VL: DIVLTQSPSASGSPGQSITISCTGTNTDYNYVSWYQHHPGKAPKVIIYDVKKRPSGVPSRFSGSRSGNTATLTVSGLQTEDEADYYCVSYADNNHYVFGSGTKVTVL
In the case of B3, the EC50 [12] is reported as 17 pM and the EC50 [13] is reported as 26 pM.

B4: TRL1338 (antibody, V domains shown)
VH: QLTLRESGPTLVKPTQTLTLTCTFSGFSLSTNGVGVGWIRQPPGKALEWLAIIYWDDDKRYSPSLKSRLTITKDTSKNQVVLTLTNMDPVDTGTYYCAHILGASNYWTGYLRYYFDYWGQGTLVTVST
VL: DIEMTQSPSVSVSPGQTARITCSGEPLAKQYAYWYQQKSGQAPVVVIYKDTERPSGIPERFSGSSSGTTVTLTISGVQAEDEADYHCESGDSSGTYPVFGGGTKLTVL
For B4, the EC50 [29] was 42000 pM.

B5: TRL1361 (antibody, V domains shown)
VH: QVQLVESGGGLAQPGGSLRLSCAASGFIFNTYAMGWVRQAPGKGLEWVSTVSAPGAGTYYTDSVKGRFIISRDNSKNILYLQMNRLRVEDTAVYYCARDQGGPAVAGARIFDYWGQGALVTVSS
VL: DIVLTQSPLSLSVTPGQPASISCKSSQSLLRSDGKTYLCWYLQKPGQPPQLLIYEVSNRVSGVPDRFSGSGSGTDFTLKISRVEAEDVGVYYCMQSIQLRTFGQGTKVEIKR
B5 gave an EC50 [29] of 6600 pM.

B6: TRL1337 (antibody, V domains shown)
VH: QVQLLESGPGLVKPSETPSLTCTVSGGSIRSYYWSWIRQPPGKGLEWIGYIYYSGSTNYNPSLKSRVTISVDMSKNQFSLKLSSVTAADTAMYYCARVYGGSGSYDFDYWGQGTLVTVSS
VL: DIVLTQSPSASGSPGQSVTISCTGTSSDVGGYNYVSWYQQLPGKAPKLMIYEVTKRPSGVPDRFSGSKSGNTASLTVSGLQAEDEADYYCSSFAGSNNHVVFGGGTKLTVL
For B6, the EC50 [29] was 6000 pM.
